According to the supplement of paper PMC10567573:

B1: CCNC (parent)
chain: QSSHYLQWILDKQDLLKERQKDLK

Variants of: B1
Test: protein stability index of a GFP-peptide fusion (GPS, HEK-293T) (PSI 1-6); higher = more stable
Conditions: c terminus: a fixed tail appended
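Further: lentivirally expressed fusions sorted by FACS into six bins by GFP to DsRed ratio, PSI derived from sequencing read proportions per bin multiplied by bin number.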

Variant	protein stability index
QSSHYKQWILDKQDLLKERQKDLK [L6K]	3.92
QSSHYMQWILDKQDLLKERQKDLK [L6M]	3.21
QSSHYNQWILDKQDLLKERQKDLK [L6N]	4.03
QSSHYPQWILDKQDLLKERQKDLK [L6P]	4.53
QSSHYQQWILDKQDLLKERQKDLK [L6Q]	3.72
QSSHYRQWILDKQDLLKERQKDLK [L6R]	3.54
QSSHYSQWILDKQDLLKERQKDLK [L6S]	3.99
QSSHYTQWILDKQDLLKERQKDLK [L6T]	3.2
QSSHYVQWILDKQDLLKERQKDLK [L6V]	3.7
QSSHYWQWILDKQDLLKERQKDLK [L6W]	2.96
QSSHYYQWILDKQDLLKERQKDLK [L6Y]	2.77
QSSHYLAWILDKQDLLKERQKDLK [Q7A]	2.39
QSSHYLCWILDKQDLLKERQKDLK [Q7C]	2.42
QSSHYLDWILDKQDLLKERQKDLK [Q7D]	3.9
QSSHYLEWILDKQDLLKERQKDLK [Q7E]	2.73
QSSHYLFWILDKQDLLKERQKDLK [Q7F]	1.57
QSSHYLGWILDKQDLLKERQKDLK [Q7G]	3.23
QSSHYLHWILDKQDLLKERQKDLK [Q7H]	3.58
QSSHYLIWILDKQDLLKERQKDLK [Q7I]	1.94
QSSHYLKWILDKQDLLKERQKDLK [Q7K]	2.84
QSSHYLLWILDKQDLLKERQKDLK [Q7L]	2.22
QSSHYLMWILDKQDLLKERQKDLK [Q7M]	3.79
QSSHYLNWILDKQDLLKERQKDLK [Q7N]	2.84
QSSHYLPWILDKQDLLKERQKDLK [Q7P]	3.31

Variant	protein stability index
QSSHYLRWILDKQDLLKERQKDLK [Q7R]	2.37
QSSHYLSWILDKQDLLKERQKDLK [Q7S]	2.65
QSSHYLTWILDKQDLLKERQKDLK [Q7T]	3.66
QSSHYLVWILDKQDLLKERQKDLK [Q7V]	1.97
QSSHYLWWILDKQDLLKERQKDLK [Q7W]	2.1
QSSHYLYWILDKQDLLKERQKDLK [Q7Y]	2.85
QSSHYLQAILDKQDLLKERQKDLK [W8A]	4.42
QSSHYLQCILDKQDLLKERQKDLK [W8C]	3.89
QSSHYLQDILDKQDLLKERQKDLK [W8D]	4.55
QSSHYLQEILDKQDLLKERQKDLK [W8E]	4.35
QSSHYLQFILDKQDLLKERQKDLK [W8F]	3.77
QSSHYLQGILDKQDLLKERQKDLK [W8G]	3.94
QSSHYLQHILDKQDLLKERQKDLK [W8H]	4.03
QSSHYLQIILDKQDLLKERQKDLK [W8I]	3.16
QSSHYLQKILDKQDLLKERQKDLK [W8K]	3.87
QSSHYLQLILDKQDLLKERQKDLK [W8L]	3.41
QSSHYLQMILDKQDLLKERQKDLK [W8M]	4.16
QSSHYLQNILDKQDLLKERQKDLK [W8N]	4.46
QSSHYLQPILDKQDLLKERQKDLK [W8P]	4.29
QSSHYLQQILDKQDLLKERQKDLK [W8Q]	3.96
QSSHYLQRILDKQDLLKERQKDLK [W8R]	4.18
QSSHYLQSILDKQDLLKERQKDLK [W8S]	4.09
QSSHYLQTILDKQDLLKERQKDLK [W8T]	4.39
QSSHYLQVILDKQDLLKERQKDLK [W8V]	3.52

Variant	protein stability index
QSSHYLQYILDKQDLLKERQKDLK [W8Y]	4.5
QSSHYLQWALDKQDLLKERQKDLK [I9A]	4.27
QSSHYLQWCLDKQDLLKERQKDLK [I9C]	3.9
QSSHYLQWDLDKQDLLKERQKDLK [I9D]	4.82
QSSHYLQWELDKQDLLKERQKDLK [I9E]	4.87
QSSHYLQWFLDKQDLLKERQKDLK [I9F]	3.98
QSSHYLQWGLDKQDLLKERQKDLK [I9G]	3.67
QSSHYLQWHLDKQDLLKERQKDLK [I9H]	3.64
QSSHYLQWKLDKQDLLKERQKDLK [I9K]	4.09
QSSHYLQWLLDKQDLLKERQKDLK [I9L]	3.36
QSSHYLQWMLDKQDLLKERQKDLK [I9M]	3.53
QSSHYLQWNLDKQDLLKERQKDLK [I9N]	4.01
QSSHYLQWPLDKQDLLKERQKDLK [I9P]	4.6
QSSHYLQWQLDKQDLLKERQKDLK [I9Q]	4.21
QSSHYLQWRLDKQDLLKERQKDLK [I9R]	4.12
QSSHYLQWSLDKQDLLKERQKDLK [I9S]	4
QSSHYLQWTLDKQDLLKERQKDLK [I9T]	3.74
QSSHYLQWVLDKQDLLKERQKDLK [I9V]	3.09
QSSHYLQWWLDKQDLLKERQKDLK [I9W]	3.83
QSSHYLQWYLDKQDLLKERQKDLK [I9Y]	3.32
QSSHYLQWIADKQDLLKERQKDLK [L10A]	4.22
QSSHYLQWICDKQDLLKERQKDLK [L10C]	3.86
QSSHYLQWIDDKQDLLKERQKDLK [L10D]	4.49
QSSHYLQWIEDKQDLLKERQKDLK [L10E]	4.29

Variant	protein stability index
QSSHYLQWIFDKQDLLKERQKDLK [L10F]	3.4
QSSHYLQWIGDKQDLLKERQKDLK [L10G]	3.76
QSSHYLQWIHDKQDLLKERQKDLK [L10H]	3.52
QSSHYLQWIIDKQDLLKERQKDLK [L10I]	2.97
QSSHYLQWIKDKQDLLKERQKDLK [L10K]	3.6
QSSHYLQWIMDKQDLLKERQKDLK [L10M]	3.41
QSSHYLQWINDKQDLLKERQKDLK [L10N]	4.17
QSSHYLQWIPDKQDLLKERQKDLK [L10P]	4.58
QSSHYLQWIQDKQDLLKERQKDLK [L10Q]	4.22
QSSHYLQWIRDKQDLLKERQKDLK [L10R]	3.61
QSSHYLQWISDKQDLLKERQKDLK [L10S]	4
QSSHYLQWITDKQDLLKERQKDLK [L10T]	3.34
QSSHYLQWIVDKQDLLKERQKDLK [L10V]	3.09
QSSHYLQWIWDKQDLLKERQKDLK [L10W]	2.54
QSSHYLQWIYDKQDLLKERQKDLK [L10Y]	3.42
QSSHYLQWILAKQDLLKERQKDLK [D11A]	3.01
QSSHYLQWILCKQDLLKERQKDLK [D11C]	2.96
QSSHYLQWILEKQDLLKERQKDLK [D11E]	3.4
QSSHYLQWILFKQDLLKERQKDLK [D11F]	2
QSSHYLQWILGKQDLLKERQKDLK [D11G]	2.75
QSSHYLQWILHKQDLLKERQKDLK [D11H]	2.86
QSSHYLQWILIKQDLLKERQKDLK [D11I]	2.26
